Assay results: patent publication US6133428

Key:
[1] = biological target: Gab1 of insulin-stimulated 3T3-L1 fibroblasts (Mus musculus (Mouse)) (UniProt Q9QYY0); experiment: PI-3-kinase activity assay on anti-Gab1 immunoprecipitates from 3T3-L1 fibroblasts
[2] = biological target: Gab1 of insulin-stimulated 3T3-L1 fibroblasts (Mus musculus (Mouse)) (UniProt Q9QYY0); experiment: PI-3-kinase activity assay on immunoprecipitates from insulin stimulated 3T3-L1 fibroblasts
[3] = biological target: endogenous Gab1 of EGF stimulated A431 cells (Homo sapiens (Human)); experiment: PI-3-kinase activity assay on anti-Gab1 immunoprecipitates from A431 cells
[4] = biological target: endogenous Gab1 of insulin stimulated A431 cells (Homo sapiens (Human)); experiment: as above
[5] = biological target: endogenous Gab1 of EGF stimulated A431 cells (Homo sapiens (Human)); experiment: PI-3-kinase activity assay on immunoprecipitates from EGF stimulated A431 cells

| Substance | fold increase of PI-3-kinase activity in Gab1 immunoprecipitates [1] [fold] | Gab1 associated PI-3-kinase activity as percent of that associated with anti-phosphotyrosine [2] [%] | fold increase of PI-3-kinase activity in anti-Gab1 immunoprecipitates against unstimulated cells [3] [fold] | fold increase of PI-3-kinase activity in Gab1 immunoprecipitates [4] [fold] | anti-Gab1 associated PI-3-kinase activity as percent of that in anti-phosphotyrosine immunoprecipitates [5] [%] |
| --- | --- | --- | --- | --- | --- |
| PI-3-kinase of 3T3-L1 fibroblasts (enzyme) | 2.4 | 71 |  |  |  |
| PI-3-kinase of A431 cells (enzyme) |  |  | 2.3 | 1.7 | 42 |
